Laboratory results published in US20050070692A1 (published 2005).

Tests used:
porcine IL-1β = target: T1, porcine IL-1β (porcine, UniProt P26889 115-267); experiment: BIAcore, antibody captured on anti-IgG CM5 chip, IL-1β flowed
T1 sequence (looked up): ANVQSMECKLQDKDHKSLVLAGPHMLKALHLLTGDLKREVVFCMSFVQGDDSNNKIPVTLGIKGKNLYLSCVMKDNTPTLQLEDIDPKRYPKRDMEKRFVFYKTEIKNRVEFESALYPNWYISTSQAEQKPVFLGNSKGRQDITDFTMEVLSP
Experimental: (§1) Affinities and specificities of both Hu007 and Mu007 were determined using BlAcore measurements. BIAcore™ is an automated biosensor system that measures molecular interactions. (Karlsson, et al. (1991) J. Immunol. Methods 145: 229-240). In these experiments antibody was immobilized at low density on a BIAcore™ chip. Ethyl-dimethylaminopropyl-carbodiimide (EDC) was used to couple reactive amino groups to purified goat anti-human IgG or goat anti-rabbit IgG to a flow cell of a carboxy-methyl (CM5) BIAcore™ sensor chip. Goat IgG was diluted in sodium acetate buffer, pH 4.0, and immobilized on a flow cell of a CM5 chip using EDC to yield 1000 response units. Unreacted sites were blocked with ehanolamine. A flow rate of 60 μL/min was used. Multiple binding/elution cycles were performed by injection a 100 μL solution of 15 μg/mL Mu007 or Hu007 followed by human IL-1β, mouse IL-1β, rat IL-1β, cynomolgus monkey IL-1β, porcine IL-1β, human IL-1 receptor antagonist, and human IL-1α at decreasing concentrations for each cycle (e.g., 1500, 750, 375, 188, 94, 47, 23.5, 12, and 0 picomolar). Elution was performed with glycine-HCl, pH 1.5. BIAevaluation™ was used to analyze the kinetic data. Table 2 depicts the affinities of Hu007 and Mu007 for human and cynomolgus IL-1β. […] Cynomolgus and porcine IL-1β had 100% binding to Hu007 relative to human IL-1β.

cynomolgus monkey IL-1β = target: T2, cynomolgus monkey IL-1β (cynomolgus monkey, UniProt P79182 117-268); experiment: as above
T2 construct: also called Cynomolgus IL-1β
T2 sequence (looked up): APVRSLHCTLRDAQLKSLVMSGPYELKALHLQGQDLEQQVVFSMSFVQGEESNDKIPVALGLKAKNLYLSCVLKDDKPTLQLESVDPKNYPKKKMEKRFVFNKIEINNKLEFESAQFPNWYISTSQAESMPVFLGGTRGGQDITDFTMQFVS
Experimental: as §1

human IL-1β [1] = target: T3, human IL-1β (human, UniProt P01584 117-269); experiment: as above
T3 construct: mature; also called mature human IL-1β; Interleukin-1β
Experimental: as §1

human IL-1β [2] = target: T3, human IL-1β; experiment: BIAcore, antibody captured on protein A CM5 chip, human IL-1β flowed
Experimental: Affinities and specificities of several Hu007 analogs were determined using BIAcore measurements. BIAcore™ is an automated biosensor system that measures molecular interactions. (Karlsson, et al. (1991) J. Immunol. Methods 145: 229-240). In these experiments antibody was immobilized at low density on a BIAcore™ chip. Ethyl-dimethylaminopropyl-carbodiimide (EDC) was used to couple reactive amino groups to protein A to a flow cell of a carboxy-methyl (CM5) BIAcore™ sensor chip. Protein A was diluted in sodium acetate buffer, pH 4.5, and immobilized on a flow cell of a CM5 chip using EDC to yield approximately 1000 response units. Unreacted sites were blocked with ethanolamine. A flow rate of 60 μl/min was used. Multiple binding/elution cycles were performed by injection of 10 μl of a 5 μg/mL Hu007 solution, and heavy chain CDR2 analogs N55D, N55S, N55Q, G56A, and G56V, followed by human IL-1β at decreasing concentrations for each cycle (e.g. 1500, 750, 375, 188, and […]). Elution was performed with glycine-HCl, pH 1.5. BIAevaluation™ was used to analyze the kinetic data. Table 5 depicts the affinities of Hu007 and the various Hu007 analogs for human IL-1β.

B1: humanized antibody Hu007 (antibody, human IgG1, kappa, V domains shown)
VH: QVQLVQSGAEVKKPGASVKVSCKVSGYTFSRYWIEWVRQAPGKGLEWIGEILPGNGNINYNEKFKGKATITADTSTDTAYMELSSLRSEDTAVYYCSTIYYDYDQGFTYWGQGTLVTVSS
VL: DIQMTQSPSSLSASVGDRVTITCKASQDIDRYLSWFQQKPGKAPKSLIYRVKRLVDGVPSRFSGSASGTDYTLTISSLQPEDFATYYCLQYDEFPYTFGQGTKLEIKR
notes: Human IgG1 kappa; also called WT; Hu007 WT
In the case of B1, the “binding relative to human IL-1β” value (porcine IL-1β) is reported as 100%, the Kd (cynomolgus monkey IL-1β) is reported as 0.0104 nM and the “binding relative to human IL-1β” value (cynomolgus monkey IL-1β) is reported as 100%. The Kd (human IL-1β [1]) was 0.0102 nM and the Kd (human IL-1β [2]) was 0.0105 nM.
